Source: patent publication US20170233495A1 (CALYPSO BIOTECH, published 2017)

How the values were obtained:
[1] = molecular target: T1, neutrophil-derived human NGAL/MMP9 complex (human, UniProt P80188 21-198); experiment: cell-based or functional assay
[2] = molecular target: T2, neutrophil-derived human monomeric MMP9 (human, UniProt P14780 20-707); experiment: cell-based or functional assay
[3] = molecular target: T3, recombinant human proMMP9 (full length, latent form) (human, UniProt P14780 20-707); experiment: SPR (BIAcore), antibody captured by anti-human Fc, antigen titrated 4.7-150 nM
T3 sequence (P14780 20-707): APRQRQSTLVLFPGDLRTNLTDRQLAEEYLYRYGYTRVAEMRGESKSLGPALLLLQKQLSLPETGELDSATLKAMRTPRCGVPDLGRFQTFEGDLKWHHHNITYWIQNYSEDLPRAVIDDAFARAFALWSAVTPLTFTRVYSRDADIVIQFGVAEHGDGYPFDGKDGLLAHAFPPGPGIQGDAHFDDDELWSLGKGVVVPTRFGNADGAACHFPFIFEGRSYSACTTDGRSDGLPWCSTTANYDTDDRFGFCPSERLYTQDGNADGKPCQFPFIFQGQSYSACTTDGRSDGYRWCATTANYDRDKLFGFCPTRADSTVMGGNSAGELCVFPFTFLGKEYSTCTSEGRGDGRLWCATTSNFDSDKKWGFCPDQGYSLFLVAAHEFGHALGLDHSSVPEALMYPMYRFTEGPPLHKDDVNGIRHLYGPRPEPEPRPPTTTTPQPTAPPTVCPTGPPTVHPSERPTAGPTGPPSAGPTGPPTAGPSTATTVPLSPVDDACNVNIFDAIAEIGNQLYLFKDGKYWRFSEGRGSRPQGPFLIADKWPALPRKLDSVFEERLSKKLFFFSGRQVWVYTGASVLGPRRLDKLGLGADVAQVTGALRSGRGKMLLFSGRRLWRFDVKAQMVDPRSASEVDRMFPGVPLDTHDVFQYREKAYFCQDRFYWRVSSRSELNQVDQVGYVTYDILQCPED
Description: (§1) In a second step, pro-MMP9 or MMP3-activated MMP9 were titrated from 4.7 to 150 nM in 2-fold dilutions.

[4] = molecular target: MMP3-activated recombinant human MMP9 (human, UniProt P14780 107-707); experiment: as above
Chain of MMP3-activated recombinant human MMP9 (P14780 107-707): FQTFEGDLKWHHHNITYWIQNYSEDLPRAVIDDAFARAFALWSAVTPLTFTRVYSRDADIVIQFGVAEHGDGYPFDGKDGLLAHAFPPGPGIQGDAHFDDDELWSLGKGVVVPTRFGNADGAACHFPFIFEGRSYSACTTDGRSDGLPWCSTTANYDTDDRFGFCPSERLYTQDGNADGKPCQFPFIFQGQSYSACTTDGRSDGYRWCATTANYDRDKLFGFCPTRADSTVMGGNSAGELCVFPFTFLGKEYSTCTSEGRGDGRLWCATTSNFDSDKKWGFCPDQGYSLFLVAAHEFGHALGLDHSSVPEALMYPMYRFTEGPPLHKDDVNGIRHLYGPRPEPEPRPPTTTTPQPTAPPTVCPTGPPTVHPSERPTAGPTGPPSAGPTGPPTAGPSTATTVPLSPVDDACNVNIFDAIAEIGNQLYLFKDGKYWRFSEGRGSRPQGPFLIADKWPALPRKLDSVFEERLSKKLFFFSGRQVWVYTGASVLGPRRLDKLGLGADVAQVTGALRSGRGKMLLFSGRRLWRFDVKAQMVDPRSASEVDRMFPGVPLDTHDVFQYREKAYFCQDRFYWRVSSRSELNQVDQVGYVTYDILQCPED
Description: as §1

[5] = molecular target: T3, recombinant human proMMP9 (full length, …); experiment: cell-based or functional assay
[6] = molecular target: T1, neutrophil-derived human NGAL/MMP9 …; experiment: cell-based or functional assay; remark: listed apart in the source
[7] = molecular target: neutrophil-derived human dimeric MMP9 (human, UniProt P14780 20-707); experiment: cell-based or functional assay
Chain of neutrophil-derived human dimeric MMP9 (P14780 20-707): as the sequence (P14780 20-707) above

[8] = molecular target: T2, neutrophil-derived human monomeric MMP9; experiment: cell-based or functional assay; remark: listed apart in the source

T2 sequence (P14780 20-707): as above
T1 sequence (chain, as listed by the source limits assumed, chain 1 of 2): as the sequence (P14780 20-707) above
T1 sequence (P80188 21-198 limits assumed, chain 2 of 2): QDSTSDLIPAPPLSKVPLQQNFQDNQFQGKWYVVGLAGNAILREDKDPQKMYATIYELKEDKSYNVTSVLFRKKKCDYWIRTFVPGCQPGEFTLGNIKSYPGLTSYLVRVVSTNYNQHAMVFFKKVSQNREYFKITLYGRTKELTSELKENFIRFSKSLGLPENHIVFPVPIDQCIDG

B1: comparative antibody 1 (antibody known as AB0041) (antibody, human IgG4 S228P, kappa, V domains shown)
VH: QVQLKESGPGLVAPSQSLSITCTVSGFSLLSYGVHWVRQPPGKGLEWLGVIWTGGTTNYNSALMSRLSISKDDSKSQVFLKMNSLQTDDTAIYYCARYYYGMDYWGQGTSVTVSS
VL: DIVMTQSHKFMSTSVGDRVSITCKASQDVRNTVAWYQQKTGQSPKLLIYSSSYRNTGVPDRFTGSGSGTDFTFTISSVQAEDLAVYFCQQHYITPYTFGGGTKLEIKR
notes: also called anti-MMP9 comparative antibody 1
For B1, the “IC50 (read off the curve)” value [1] was ~1 nM, the “IC50 (read off the curve)” value [2] was ~1 nM and the Kd [3] was 0.9 nM. For the same binder, the Kd [4] was 5 nM, the “IC50, DQ-gelatin digestion, MMP3/MMP9 assay” value [5] was 0.2 nM and the “efficacy of inhibition, MMP3/MMP9 assay with neutrophil-derived MMP9” value (from here on “efficacy of inhibition, MMP3/MMP9 assay”) [6] was 25%. For the same binder, the “efficacy of inhibition, MMP3/MMP9 assay” value [7] was 25% and the “efficacy of inhibition, MMP3/MMP9 assay” value [8] was 25%.
